Experiments:
[1] = system: Candida albicans ATCC 90028; assay: CFU assay with C. albicans; type: cell-based; conditions: for Estimate (difference between means of log values): control - treatment, pH 4
Procedure, shortened: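 About 4×10^3–10^4 CFU of C. albicans (ATCC 90028 unless stated) exposed to test substance in 10 mM Tris, 5 mM glucose at pH 7.4 or pH 4 for 4 h at 37 °C. Survivors counted as colonies after 2 days at 30 °C; log counts compared with control.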

[2] = Liposome leakage (carboxyfluorescein release); type: biochemical; conditions: % ± SD of leakage with Triton X-100, CF fluorescence 520 nm, 37°C, at least triplicate
Procedure: Subsequently, buffer (10 mM Tris, pH 7.4) was added together with 0.1 M carboxyfluorescein (CF) (Sigma, St Louis, MO). After hydration, the lipid mixture was subjected to eight freeze-thaw cycles consisting of freezing in liquid nitrogen and heating to 60°C. Unilamellar liposomes of about Ø140 nm were generated by multiple extrusions through polycarbonate filters (pore size 100 nm) mounted in a […] (Avestin, Ottawa, Canada) at 22°C. Untrapped CF was then removed by two gel filtrations (Sephadex G-50) at 22°C, with Tris buffer as eluent. CF release was determined by monitoring the emitted fluorescence at 520 nm from liposome dispersions (10 mM lipid in 10 mM Tris). An absolute leakage scale was obtained by disrupting the liposomes at the end of the experiment through addition of 0.8 mM Triton X100 (Sigma, St Louis, MO), causing 100% release and dequenching of CF. Although calcein is frequently used for pH-dependent leakage studies, the high charge of this dye has been noted to influence its leakage behavior in the presence of highly cationic peptides. Instead, therefore, CF was used as a leakage marker at both pH 6.0 and 7.4, avoiding pH-dependent fluorescence effects through neutralization prior to probing the limiting leakage in case of pH 6.0 leakage. Throughout, a SPEX-fluorolog 1650 0.22-m double spectrometer (SPEX Industries, Edison, NJ) was used for the liposome leakage assay. Measurements were performed in at least triplicate at 37°C.

B1: β-microseminoprotein (natural protein, human, UniProt P08118 21-114, looked up)
chain: SCYFIPNEGVPGDSTRKCMDLKGNKHPINSEWQTDNCETCTCYETEISCCTLVSTPVGYDKDNCQRIFKKEDCKYIVVEKKDPKKTCSVSEWII
notes: human β-microseminoprotein (MSP, PSP94), native protein purified from seminal plasma; also called MSP; PSP94
- Estimate (difference between means of log values) ([1]; 25 µM MSP + 25 µM EDTA + 0.5 mM calcium, experiment 1): -0.9947
- Estimate (difference between means of log values) ([1]; 25 µM MSP + 25 µM EDTA + 0.5 mM calcium, experiment 2): -0.9876
- Estimate (difference between means of log values) ([1]; 25 µM MSP + 25 µM EDTA + 0.5 mM calcium, experiment 3): -1.0805
- Estimate (difference between means of log values) ([1]; 25 µM MSP + 25 µM EDTA + 0.5 mM magnesium, experiment 1): 1.9399
- Estimate (difference between means of log values) ([1]; 25 µM MSP + 25 µM EDTA + 0.5 mM magnesium, experiment 2): 2.1624
- Estimate (difference between means of log values) ([1]; 25 µM MSP + 25 µM EDTA + 0.5 mM magnesium, experiment 3): 1.6349
- Estimate (difference between means of log values) ([1]; 25 µM MSP + 25 µM EDTA, experiment 1): 4.1638
- Estimate (difference between means of log values) ([1]; 25 µM MSP + 25 µM EDTA, experiment 2): 4.7089
- Estimate (difference between means of log values) ([1]; 25 µM MSP + 25 µM EDTA, experiment 3): 4.1911
- Estimate (difference between means of log values) ([1]; 25 µM, experiment 1): -0.06377
- Estimate (difference between means of log values) ([1]; 25 µM, experiment 2): -0.4481
- Estimate (difference between means of log values) ([1]; 25 µM, experiment 3): -0.4892
- Fungicidal activity in CFU assay ([1]; native MSP 10 µM + 20 µM EDTA or recombinant dialyzed MSP 10 µM + 10 µM EDTA): prominent fungicidal activity
- Candidacidal activity in CFU assay ([1]; neutral and acidic pH, without EDTA): no candidacidal activity
- Liposome leakage ([2]; pH 6.0, +EDTA, DOPC/ergosterol liposomes): 53±5%
- Liposome leakage ([2]; pH 6.0, without EDTA, DOPC/ergosterol liposomes): 36±8%
- Liposome leakage ([2]; pH 7.4, +EDTA): 20±6%
- Liposome leakage ([2]; pH 7.4, without EDTA): 20±5%
